PMC8208635

Biological target: nascent, unphosphorylated PKC species (PDK1 binding, Fig. S9C) (UniProt P68403)

fold binding relative to the phosphorylated form: 2 fold
B1: PDK1 (enzyme)
chain: MARTTSQLYDAVPIQSSVVLCSCPSPSMVRTQTESSTPPGIPGGSRQGPAMDGTAAEPRPGAGSLQHAQPPPQPRKKRPEDFKFGKILGEGSFSTVVLARELATSREYAIKILEKRHIIKENKVPYVTRERDVMSRLDHPFFVKLYFTFQDDEKLYFGLSYAKNGELLKYIRKIGSFDETCTRFYTAEIVSALEYLHGKGIIHRDLKPENILLNEDMHIQITDFGTAKVLSPESKQARANSFVGTAQYVSPELLTEKSACKSSDLWALGCIIYQLVAGLPPFRAGNEYLIFQKIIKLEYDFPEKFFPKARDLVEKLLVLDATKRLGCEEMEGYGPLKAHPFFESVTWENLHQQTPPKLTAYLPAMSEDDEDCYGNYDNLLSQFGCMQVSSSSSSHSLSASDTGLPQRSGSNIEQYIHDLDSNSFELDLQFSEDEKRLLLEKQAGGNPWHQFVENNLILKMGPVDKRKGLFARRRQLLLTEGPHLYYVDPVNKVLKGEIPWSQELRPEAKNFKTFFVHTPNRTYYLMDPSGNAHKWCRKIQEVWRQRYQSHPDAAVQ
